# Assay results: patent US20160075755A1
# Molecular target: TGFβ1 (UniProt P01137)
# Test: cell-based or functional assay
# Sequence of DNRII (truncated, dominant-negative TGFβ receptor II) (P37173 23-199): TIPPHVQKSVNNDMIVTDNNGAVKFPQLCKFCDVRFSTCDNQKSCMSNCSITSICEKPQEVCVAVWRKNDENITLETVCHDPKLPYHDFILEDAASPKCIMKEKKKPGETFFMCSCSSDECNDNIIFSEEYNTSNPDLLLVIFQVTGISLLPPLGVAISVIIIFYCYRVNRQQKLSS
# Sequence of TGFβ1 (P01137 279-390 limits assumed): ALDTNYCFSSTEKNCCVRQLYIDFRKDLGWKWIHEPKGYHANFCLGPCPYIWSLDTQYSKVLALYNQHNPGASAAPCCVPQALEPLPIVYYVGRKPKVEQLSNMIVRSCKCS
T cell expansion after 30 days in culture in the presence of TGFβ1 [fold],"Total Flux of firefly-luciferase-Du145 cells (express PSCA, produce TGFβ1) after 6 days of co-culture [p/s]",fold expansion of 2G.CAR-PSCA(DNRII) T cells at 2 weeks of culture in the presence of TGFβ1 [fold],T cell expansion for >60 days in the presence of TGFβ1 [fold],fold expansion of 2G.CAR-PSCA(RIID4) T cells at 2 weeks of culture in the presence of TGFβ1 [fold],transgenic T cell proliferation with TGFβ1 alone (no antigen) [fold],Substance
0.72,1e+10,7.4,–,–,–,"DNRII (truncated, dominant-negative TGFβ receptor II) (from UniProt P37173 23-199)"
–,9e+09,–,300000,21,0.04,RIID4 (chimeric cytokine receptor: exodomain of TGFβRII linked to the endodomain of toll-like receptor (TLR) 4) (from UniProt P37173 23-166; O00206 632-839)
